Target: AMEF β-gal (normally inactive β-galactosidase variant, AMEF 959) (E. coli)
Test: cell-based or functional assay

Binder	AMEF β-gal activation in vivo (whole cell X-gal hydrolysis, absorbance at 620 nm) [fold over wt scFv13]
scFv13 variant S20 (scFv) scFv: MADYKDDDDKGGSAEVQLVESGGGLVKPGGSLRLSCAASGFTFSNNSMNWVRQAPGKGLEWVSSISSSSSYIYYADFVKGRFTISRDNAKNSLYLQMNSLRAEDTAVYYCARSSTTIFGGGMDVWGRGTLVTVSSGGGGSGEGGSGGGGSQSVLTQPASVSGSPGQSITISCAGTSSDVGGYNYVSWYQQHPGKAPKLMIYEDSKRPSGVSNRFSGSKSGNTASLTISGLQAEDEADYYCSSYTTRSTRVFGGGTKLAVLGAAAEQKLISEGDLNGAAELHHHHHH	~2
scFv13 variant S23 (scFv) scFv: MADYKDDDDKGGSAEVQLVESGGGLVKPGGSLRLSCAASGFTFSNYSMNWVRQAPGKGLEWISSISSSSSYIYYADFVKGRFTISRDNVKNSLYLQMNSLRAEDTAVYYCARSSITIFGGGMDVWGRGTLVTVSSGGGGSGGGGSGGGGSQSVLTQPASVSGSPGQSITISCAGTSSDVGGYNYVSWYQQHLGKAPKLMIYEGSKRSSGVSNRFSGSKSGNTASLTISGLQAEDEADYYCSSYTTRSTRVFGGGTKLAVLGAAAEQKLISEEDLNGAAELHHHHHH	~2

Source: patent publication US20110008774A1 (CORNELL RESEARCH FOUNDATION, published 2011)
